Measurements as given in patent publication US20050130152, “Method for performing in vitro diagnosis using gene regulation mechanisms and corresponding diagnosis kit” (UNISENSOR S.A., published 2005).

Target: T1, TetR class C (tetracycline repressor, pSC101) (Escherichia coli C600 (plasmid pSC101), UniProt P03039 P03039:1-219)
T1 sequence: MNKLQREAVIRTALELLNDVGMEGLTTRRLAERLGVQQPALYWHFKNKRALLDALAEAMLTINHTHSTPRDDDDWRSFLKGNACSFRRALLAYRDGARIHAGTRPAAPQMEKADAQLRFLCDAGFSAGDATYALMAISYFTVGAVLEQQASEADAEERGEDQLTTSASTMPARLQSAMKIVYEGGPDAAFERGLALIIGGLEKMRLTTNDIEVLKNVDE
Assay: immunochromatographic strip; test line 5218 without tetracycline, falling to 399 at 100 ppb tetracycline in milk; DNA immobilised via avidin
Conditions: tags: untagged; detected via anti-TetR serum and gold-labelled A-protein in strip assay; chain copies: 2; label: 5'-biotin on teta-40; 31 bp duplex with 5' single-strand poly-T tail
Procedure: 200 μl of milk are incubated in the presence of the lyophilised reagents and prepared as in Point 1.1.2.2. After two minutes of incubation at 37° C., the analysis strip described at 1.3 is immersed in the solution. The final interpretation is carried out after 8 minutes of incubation by means of an optical strip reader available from 77-Elektronika (Budapest, Hungary).

B1: tetA operator of pSC101 (teta-40/teta-30) (dsDNA)
DNA 1: TTTTTTTTTTTAATGCGGTAGTTTATCACAGTTAATTGCTAA
DNA 2: TTAGCAATTAACTGTGATAAACTACCGCATT
B1: binds.
